{"source": "the nanobody polyreactivity screen of Harvey et al. (2022)"}
{"assay": "yeast display, Sf9 membrane polyspecificity reagent, FACS + sequencing; frameworks hold sequencing errors", "procedure,_shortened": "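Sorting gates, low and high (top ~1%), were placed on anti-HA fluorescence to track expression and on streptavidin fluorescence to track reagent binding. A clone's polyreactivity label is taken from the gate it came out of. The reagent was 10% biotinylated, detergent-solubilized Sf9 membrane, applied for 1 hour at 4 °C to galactose-induced yeast display cells.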"}
{"sequence": "QVQRVESGGGLVQAGGSLRLSCAASGFTLDYYTMGWYRQAPGKERELVAAISWIGTSTYYADSVKGRFTISRDNAKNTVYIQMNSLKPEDTAVYYCAAVGASVDDYYWGQGSQVTVSS", "polyreactivity (PSR sort gate)": "high polyreactivity"}
{"sequence": "QVQRVESGGGLVQAGGSLRLSCAASGITFDRYAMGWYRQAPGKETELVAAISSGGRTNYADSVKGRFTISRDNAKNTVYLQMNSLKPEDTEVYYCSKRRARSGQDYDYWGQGTQVTVSS", "polyreactivity (PSR sort gate)": "low polyreactivity"}
{"sequence": "QVQRVESGGGLVQAGGSLRLSCAASGITFGIYVMGWYRQAPGKETELVATISRSDDNTYYADSVKGRFTISRDNAKNTVYLQMNSLKPEDTAVYYCAADGVISAWYSSRDDYWGQGTQVTVSS", "polyreactivity (PSR sort gate)": "low polyreactivity"}
{"sequence": "QVQRVESGGGLVQAGGSLRLSCAASGITFWPYAMGWYRQAPGKERELVAAIRASVGRTYYADSVKGRFTISRDNAKNTVYLQMNSLKPEDTAVYYCNAYGRYGKFRVEYDYWGQGTQVTVSS", "polyreactivity (PSR sort gate)": "low polyreactivity"}
{"sequence": "QVQRVESGGGLVQAGGSLRLSCAASGLIFRKYAMGWYRQEPGKERELVAAISLRGVSTYYADSVKGRFTISRDNAKNTVYLQMNRLKPEDTAVYYCAADVYYPLGYGLDYWGQGYQVTVSS", "polyreactivity (PSR sort gate)": "low polyreactivity"}
{"sequence": "QVQRVESGGGLVQAGGSLRLSCAASGLILVPNTMGWYRQAPGKVRELVAAISYSGGGTYYADAVKGRFTISRDNAKNTVYLQMNSLKPEETAVYDCAAYVKRESAPYGYWGQGTQVTVSS", "polyreactivity (PSR sort gate)": "low polyreactivity"}
{"sequence": "QVQRVESGGGLVQAGGSLRLSCAASGNTFKYNTMGWYRQAPGTERELVAAISSGGNTKYADSVKGRFTISRDNGKNTDYFQMNSLKPEDTAVNYCATTFPRKGRFRYDYWGQGTQVTVSS", "polyreactivity (PSR sort gate)": "high polyreactivity"}
{"sequence": "QVQRVESGGGLVQAGGSLRLSCAASGNTFYGYTMGWYRQAPGKERELVAAISGRGGSTTYADSVKGRFTISRDNEKNTVYCQMNSLKPEDTAVYDCAANSVYIRTRFYYWGQGTQETVSS", "polyreactivity (PSR sort gate)": "high polyreactivity"}
{"sequence": "QVQRVESGGGLVQAGGSLRLSCAASGRIFGLNAMGWYRQAPGKERELVAAIDRSGASTYYADSVKGRFTISRDNAKNTVYLQMNSLKPEDSAVYYCAARIRTSDRRYYLGQGTQVTVSS", "polyreactivity (PSR sort gate)": "high polyreactivity"}
{"sequence": "QVQRVESGGGLVQAGGSLRLSCAASGRIFRYYAMGWYRQAPGKERELVAAISRSSGSTYYADSVKGRFTISRDNAKNTVYLQMNSLKPEDTAVYYCATAFYSYGRYPQSYYWGQGTQVTVSS", "polyreactivity (PSR sort gate)": "high polyreactivity"}
{"sequence": "QVQRVESGGGLVQAGGSLRLSCAASGRIFVAYVMGWYRQAPGKERELVAAITRSGGRTYYADSVKGRFTISRDNAKNTVYLQMNSLKPEDTAVYYCATDSGWSTYDYWGQGTQVSVSS", "polyreactivity (PSR sort gate)": "high polyreactivity"}
{"sequence": "QVQRVESGGGLVQAGGSLRLSCAASGRTFPPYAMGWYRQAPGKERELVASIRRGGSTHYADSVKGRFTISRDNAKNTVYLQMNSLKPEDTAVYYCNADVIFGYTHYNYWGQGTQVTVSS", "polyreactivity (PSR sort gate)": "high polyreactivity"}
{"sequence": "QVQRVESGGGLVQAGGSLRLSCAASGRTFVFYDMGWYRQAPGKERELVAAITSSGGRTYYADSVKGRFTISRDNAKNTVYLQMYRVKPEDTAVYYCAAPYYPYKYDSWGQGTQVTVSS", "polyreactivity (PSR sort gate)": "low polyreactivity"}
{"sequence": "QVQRVESGGGLVQAGGSLRLSCAASGSIFGVYTRGWYRQAPGKESELVAAITSAGSTYADSVKGRFTISRDNAKNTVYLQMNSLKPEDTAVYYCAAGFHKRVTPEILYDYWGQGTQVTVSS", "polyreactivity (PSR sort gate)": "low polyreactivity"}
{"sequence": "QVQRVESGGGLVQAGGSLRLSCAASGSIFRFYAMGWYRQARGKERELVAAITSGGSTNYADSVKGRFTISRDNAKNTVFLQMKSLKPEDTAVYYFNAGLFYKPQYGYWGQGTQVTVSS", "polyreactivity (PSR sort gate)": "high polyreactivity"}
{"sequence": "QVQRVESGGGLVQAGGSLRLSCAASGSIFSYYARGLYRQAPGNESELVAVINSGSTNYAASVKGRFTISRDNAKNTVYIHMNSLKPEDTAVYYCAADSLLYLLEQYTTAPYDYWAQGTQVTVSS", "polyreactivity (PSR sort gate)": "low polyreactivity"}
